According to the supplement of paper PMC7877785:
± gives the uncertainty stated by the source.

Assay: self-splicing fitness, log relative to wild type (ln ratio); higher = more splicing; Tetrahymena group I intron in knt gene, E. coli kanamycin selection, DiMSum; sequences stand for … in CUCUCU…GGAGGGAAAAGUUAUCAGGCAUGCACCUGGUAGCUAGUCUUUAAACCAAUAGAUUGCAUCGGUUUAAAAGGCAAGACCGUCAAAUUGCGGGAAAGGGGUCAACAGCCGUUCAGUACCAAGUCUCAGGGGAAACUUUGAGAUGGCCUUGCAAAGGGUAUGGUAAUAAGCUGACGGACAUGGUCCUAACCACGCAGCCAAGUCCUAAGUCAACAGAUCUUCUGUUGAUAUGGAUGCAGUUCACAGACUAAAUGUCGGUCGGGGAAGAUGUAUUCUUCUCAUAAGAUAUAGUCGGACCUCUCCUUAAUGGGAGCUAGCGGAUGAAGUGAUGCAACACUGGAGCCGCUGGGAACUAAUUUGUAUGCGAAAGUAUAUUGAUUAGUUUUGGAGUACUCGUGGUCG
Outline: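 Fitness was computed with DiMSum as the error-weighted combination of replicate fold changes, kanamycin versus none, each normalised to wild type. The library randomised all eight intron nucleotides of the P1ex region, with the intron placed in the knt kanamycin-resistance gene on pET-22b(+) in E. coli BL21(DE3). Six replicate transformations were grown overnight at 37°C or 30°C on LB agar with or without 25 μg/mL kanamycin, plus 100 μg/mL carbenicillin, 50 μM IPTG and 0.2% rhamnose. Pooled colonies were amplicon-sequenced on an Illumina HiSeq 2500.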

Row | Sequence | self-splicing fitness (ln) (30 °C) | self-splicing fitness (ln) (37 °C)
1 | CCUAAGCAAUAUUACGCCUA | -2.7 ± 0.21 | -2.24 ± 0.28
2 | CCUAAGCAAUAUUACGCGUC | -3.25 ± 0.16 | -1.95 ± 0.17
3 | CCUAAGCAAUAUUACGCUGU | -3.8 ± 0.33 | -2.61 ± 0.33
4 | CCUAAGCAAUAUUACGGCAG | -2.09 ± 0.084 | -1.21 ± 0.098
5 | CCUAAGCAAUAUUACGGCCA | -2.55 ± 0.22 | -2.58 ± 0.26
6 | CCUAAGCAAUAUUACGGCGU | -4.15 ± 0.3 | -2.49 ± 0.24
7 | CCUAAGCAAUAUUACGGCUA | -3.69 ± 0.47 | -3.14 ± 0.25
8 | CCUAAGCAAUAUUACGGCUU | -3.04 ± 0.15 | -3.04 ± 0.21
9 | CCUAAGCAAUAUUACGGGAC | -3.86 ± 0.23 | -2.7 ± 0.22
10 | CCUAAGCAAUAUUACGGGUA | -2.36 ± 0.27 | -1.67 ± 0.25
11 | CCUAAGCAAUAUUACGGUAG | -1.27 ± 0.078 | -0.941 ± 0.097
12 | CCUAAGCAAUAUUACGUCCA | -3.28 ± 0.25 | -2.1 ± 0.41
13 | CCUAAGCAAUAUUACGUGGA | -2.73 ± 0.15 | -2.55 ± 0.28
14 | CCUAAGCAAUAUUACGUGGC | -3.59 ± 0.18 | -2.85 ± 0.19
15 | CCUAAGCAAUAUUACGUUGA | -3.74 ± 0.25 | -1.94 ± 0.17
16 | CCUCAGCAAUAUUACGAAUC | -3.45 ± 0.28 | -2.82 ± 0.31
17 | CCUCAGCAAUAUUACGACAU | -3.84 ± 0.024 | -2.84 ± 0.039

Row | Sequence | self-splicing fitness (ln) (30 °C) | self-splicing fitness (ln) (37 °C)
18 | CCUCAGCAAUAUUACGACCC | -2.75 ± 0.38 | -2.41 ± 0.49
19 | CCUCAGCAAUAUUACGAGAA | -3.3 ± 0.41 | -2.28 ± 0.29
20 | CCUCAGCAAUAUUACGAGGC | – | -2.19 ± 0.31
21 | CCUCAGCAAUAUUACGAGUG | -2.34 ± 0.14 | -0.953 ± 0.14
22 | CCUCAGCAAUAUUACGAUGC | -4.19 ± 0.24 | -2.15 ± 0.3
23 | CCUCAGCAAUAUUACGCAAG | -3.31 ± 0.17 | -1.71 ± 0.14
24 | CCUCAGCAAUAUUACGCACU | -3.26 ± 0.18 | -1.63 ± 0.2
25 | CCUCAGCAAUAUUACGCCCA | -3.18 ± 0.22 | -3.5 ± 0.39
26 | CCUCAGCAAUAUUACGCUGA | -2.75 ± 0.35 | -3.12 ± 0.47
27 | CCUCAGCAAUAUUACGCUUG | -4.31 ± 0.37 | -2.52 ± 0.23
28 | CCUCAGCAAUAUUACGGAAG | -1.05 ± 0.11 | -0.549 ± 0.14
29 | CCUCAGCAAUAUUACGGAAU | -3.72 ± 0.3 | -2.69 ± 0.25
30 | CCUCAGCAAUAUUACGGCAU | -3.12 ± 0.13 | -2.42 ± 0.18
31 | CCUCAGCAAUAUUACGGCUA | -3.62 ± 0.4 | -1.72 ± 0.25
32 | CCUCAGCAAUAUUACGGCUC | -2.77 ± 0.16 | -2.46 ± 0.29
33 | CCUCAGCAAUAUUACGGGUA | -3.23 ± 0.18 | -1.9 ± 0.14
